Measured values as given in patent US7022673B2, “Method for increasing the serum half-life of a biologically active molecule” (Chiron Corporation, priority 1998, dated 2006).
No end group written: not given here.

Key:
[1] = Serum half-life after intravenous injection into mice; type: in vivo; details: for serum half-life: mice, intravenous injection
Description: uPA1-48 was produced in yeast, purified and concentrated into PBS. When produced in yeast, uPA1-48 lacks a fucosylation which is present when the protein is expressed in mammalian cells. The purified protein was injected intravenously into mice. Blood samples were collected at various time points, and the amount of uPA1-48 present in each sample was determined.
Pharmaceutical preparations comprising the conjugates of uPA1-48 and PEG were injected intravenously into mice. Blood samples were collected at various time points, and the amount of conjugate present in the blood was determined for each time point.

[2] = relative to native protein; cited from earlier work
uPAR = uPAR (Homo sapiens, UniProt Q03405); assay: uPAR receptor binding activity (method of Goodson et al.); details: for IC50: uPAR receptor binding
Chain of uPAR (Q03405 23-335): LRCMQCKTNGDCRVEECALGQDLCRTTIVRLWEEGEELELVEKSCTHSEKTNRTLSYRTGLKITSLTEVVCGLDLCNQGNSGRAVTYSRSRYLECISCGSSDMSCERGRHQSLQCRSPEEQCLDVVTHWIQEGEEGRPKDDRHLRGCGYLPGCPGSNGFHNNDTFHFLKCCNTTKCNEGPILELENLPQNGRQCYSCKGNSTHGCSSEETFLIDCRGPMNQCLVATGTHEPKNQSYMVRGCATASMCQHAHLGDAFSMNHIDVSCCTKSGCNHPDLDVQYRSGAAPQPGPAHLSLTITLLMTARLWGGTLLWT

[3] = tested on: MDA MB231 cells (human breast carcinoma); assay: Breast carcinoma MDA MB231 subcutaneous tumor growth in NOD/Ltz mice; type: in vivo; details: for tumor growth reduced: vs vehicle control at 9 weeks, p=0.05
Description: Thirty NOD/Ltz mice were injected subcutaneously with 2×10^6 MDA MB231 cells (human breast carcinoma) on day 0. The mice were divided into three groups of 10 mice each, and the treatment of the three groups of mice began on day 1. Twice every week, group 1 was subcutaneously injected with 30 μg PEG hu1-48 (20 kD PEG), group 2 was subcutaneously injected with 300 μg PEG hu1-48 (20 kD PEG), and group 3 was subcutaneously injected with the vehicle (PBS). Treatment was continued for 9 weeks. The primary tumor volume (mm^3) was measured three times per week for 12 weeks, and the experiment was terminated when mean tumor volume in vehicle control group exceeded 2000 mm^3.

[4] = Pharmacokinetics after single IV bolus or SC dose in cynomologous monkeys (active protein measured by receptor binding activity); type: in vivo; details: for t1/2: functional half-life
Description: As above, blood samples were collected at various time points, and the amount of conjugate present in the blood was determined for each time point. The method measures the receptor binding activity instead of just the total protein present; thus the amount of protein measured as a function of time represents the active protein, and the measured half-life represents functional half-life. The data is shown in Table 1, and a graph illustrating plasma disposition of PEG hu1-48 over time is included in FIG. 1.

[5] = tested on: KM12 L4A cells (human colorectal carcinoma cancer with high metastatic potential); assay: Liver metastases in post-resection colorectal carcinoma model (KM12 L4A, spleen removed); type: in vivo, mice; details: 1000 μg SC twice per week, vs vehicle
Description: Thirty male Nu/Nu mice were injected intrasplenically with 0.5×10^6 KM12 L4A cells (human colorectal carcinoma cancer with high metastatic potential), and the spleens of all the mice were removed 3 days after implantation of the KM12 L4A cells. The mice were divided into two treatment groups, and treatment was began 6 days after implantation. The first group of 15 mice received subcutaneous administrations of 1000 μg PEG hu1-48(20 kD PEG) twice per week, and the second group of 15 mice received saline vehicle only and served as the control group. The experiment was terminated 27 days after implantation of the KM12 L4A cells, and the weight of the livers were determined and histologically scored for metastatic foci.

[6] = tested on: PC-3 mm2 cells (human prostate carcinoma); assay: Human prostate carcinoma PC-3 mm2 orthotopic tumor growth in nude mice; type: in vivo; details: 300 μg SC twice per week for 3 weeks, vs vehicle control
Description: The prostates of 18 nude mice were injected with 1×10^5 PC-3 mm2 cells (human prostate carcinoma) on day 0. The mice were divided into two groups of nine mice each, and treatment was initiated on day 3 and continued for 3 weeks. Twice per week, the mice of group 1 received 300 μg PEG hu1-48 (20 kD PEG) by subcutaneous administration, and the mice of group 2 received vehicle only by subcutaneous administration. Three weeks after the implantation of the human prostate carcinoma cells, the prostates of the mice were excised and weighed to determine effects of treatment on the primary tumor growth.

[7] = tested on: KM12 L4A cells (human colorectal adenocarcinoma); assay: Colon cancer tumor growth and liver metastases, intrasplenic KM12 L4A in nude mice; type: in vivo; details: 250 μg BID SC five times per week, 4 weeks
Description: Twenty 10 week old Nude male mice were injected intrasplenically with 1×10^6 KM12 L4A cells (human colorectal adenocarcinoma) on day 0. The mice were divided into two groups, and treatment was initiated on day 1 post-implantation and continued for 4 weeks. Group 1, consisting of 10 mice, were subcutaneously injected five times per week with PEG hu1-48 (20 kD PEG) and 250 μg BID while group 2 mice acted as the control and were injected with vehicle only. The animals were sacrificed all 5 weeks, and the spleens of the animals from each group were weighed to determine primary tumor burden (FIG. 4A). The livers were weighed to determine metastatic tumor burden, and were scored by histological examination for incidence of metastases (FIG. 4B). […] For the purposes of comparison, the average splenic weight for mice in this age group is about 240 mg.

Substance: uPA1-48/PEG50 kD dimeric conjugate: a uPA1-48 molecule conjugated at each end of PEG50 kD (SNELHQVPSNCDCLNGGTCVSNKYFSNIHWCNCPKKFGGQHCEIDKSK; cysteine pairing not given here; also: dimer: one uPA1-48 conjugated at each end of PEG 50 kDa, site not given here; UniProt P00749 21-68, looked up, fragment)
- serum half-life [1]: 4.8 h

Substance: PEG20 kD to IL-1ra: literature conjugate of PEG20 kD with IL-1ra (Gaertner and Offord 1996)
- change in half-life on conjugation to PEG20 kD [2]: almost seven-fold increase

Substance: uPA1-48/PEG25 kD conjugate: uPA1-48 N-terminal aldehyde coupled to PEG hydrazide of nominal average molecular weight 25 kD ({PEG 25 kDa hydrazone}-SNELHQVPSNCDCLNGGTCVSNKYFSNIHWCNCPKKFGGQHCEIDKSK; cysteine pairing not given here; UniProt P00749 21-68, looked up, fragment)
- serum half-life [1]: 4.62 h

Substance: uPA1-48: catalytically inactive protein comprising the first 48 amino acids of human uPA (EGF-like domain), produced in yeast (SNELHQVPSNCDCLNGGTCVSNKYFSNIHWCNCPKKFGGQHCEIDKSK; UniProt P00749 21-68, looked up, fragment)
- serum half-life [1]: approximately 10 minutes
- IC50 (uPAR): 0.25 nM

Substance: uPA1-48/PEG20 kD conjugate: uPA1-48 N-terminal aldehyde coupled to PEG hydrazide of nominal average molecular weight 20 kD ({PEG 20 kDa hydrazone}-SNELHQVPSNCDCLNGGTCVSNKYFSNIHWCNCPKKFGGQHCEIDKSK; cysteine pairing not given here; UniProt P00749 21-68, looked up, fragment)
- tumor growth reduced ([3]; 30 μg SC twice every week): 77%
- tumor growth reduced ([3]; 300 μg SC twice every week): 98%
- effect after treatment was stopped (day 63) ([3]; 300 μg group observed additional 3 weeks, tumors evident by day 84): cytostatic effect
- t1/2 ([4]; monkey F67-344F, IV, 10 mg/kg): 6.9 h
- t1/2 ([4]; monkey F67-344F, SC, 10 mg/kg): 23 h
- t1/2 ([4]; monkey F7238F, IV, 10 mg/kg): 7.6 h
- t1/2 ([4]; monkey F7238F, SC, 10 mg/kg): 26 h
- t1/2 ([4]; monkey F7281F, IV, 8.8 mg/kg): 6.4 h
- t1/2 ([4]; monkey F7281F, SC, 10 mg/kg): 14 h
- AUC ([4]; monkey F67-344F, IV, 10 mg/kg): 3297918 nM·min
- CL ([4]; monkey F67-344F, IV, 10 mg/kg): 0.6 mL/min/kg
- Cmax ([4]; monkey F67-344F, IV, 10 mg/kg): 19.143 µM
- F ([4]; monkey F67-344F, IV, 10 mg/kg): 100%
- MRT ([4]; monkey F67-344F, IV, 10 mg/kg): 7.4 h
- Tmax ([4]; monkey F67-344F, IV, 10 mg/kg): 0 h
- Vss ([4]; monkey F67-344F, IV, 10 mg/kg): 0.252 L/kg
- AUC ([4]; monkey F67-344F, SC, 10 mg/kg): 3803604 nM·min
- Cmax ([4]; monkey F67-344F, SC, 10 mg/kg): 2.596 µM
- F ([4]; monkey F67-344F, SC, 10 mg/kg): 115%
- MRT ([4]; monkey F67-344F, SC, 10 mg/kg): 31 h
- Tmax ([4]; monkey F67-344F, SC, 10 mg/kg): 8 h
- AUC ([4]; monkey F7238F, IV, 10 mg/kg): 3002085 nM·min
- CL ([4]; monkey F7238F, IV, 10 mg/kg): 0.6 mL/min/kg
- Cmax ([4]; monkey F7238F, IV, 10 mg/kg): 30.564 µM
- F ([4]; monkey F7238F, IV, 10 mg/kg): 100%
- MRT ([4]; monkey F7238F, IV, 10 mg/kg): 6.6 h
- Tmax ([4]; monkey F7238F, IV, 10 mg/kg): 0 h
- Vss ([4]; monkey F7238F, IV, 10 mg/kg): 0.249 L/kg
- AUC ([4]; monkey F7238F, SC, 10 mg/kg): 3057502 nM·min
- Cmax ([4]; monkey F7238F, SC, 10 mg/kg): 2.155 µM
- F ([4]; monkey F7238F, SC, 10 mg/kg): 101%
- MRT ([4]; monkey F7238F, SC, 10 mg/kg): 28 h
- Tmax ([4]; monkey F7238F, SC, 10 mg/kg): 4 h
- AUC ([4]; monkey F7281F, IV, 8.8 mg/kg): 1987996 nM·min
- CL ([4]; monkey F7281F, IV, 8.8 mg/kg): 0.8 mL/min/kg
- Cmax ([4]; monkey F7281F, IV, 8.8 mg/kg): 19.199 µM
- F ([4]; monkey F7281F, IV, 8.8 mg/kg): 100%
- MRT ([4]; monkey F7281F, IV, 8.8 mg/kg): 5.1 h
- Tmax ([4]; monkey F7281F, IV, 8.8 mg/kg): 0 h
- Vss ([4]; monkey F7281F, IV, 8.8 mg/kg): 0.255 L/kg
- AUC ([4]; monkey F7281F, SC, 10 mg/kg): 2337888 nM·min
- Cmax ([4]; monkey F7281F, SC, 10 mg/kg): 1.126 µM
- F ([4]; monkey F7281F, SC, 10 mg/kg): 103%
- MRT ([4]; monkey F7281F, SC, 10 mg/kg): 31 h
- Tmax ([4]; monkey F7281F, SC, 10 mg/kg): 8 h
- serum half-life [1]: 2.17 h
- increase in serum half-life ([1]; relative to unmodified uPA1-48, mice): 13 fold
- overall liver tumor burden ([5]; day 27): trend toward a reduction
- metastases to the liver ([5]; p value <0.05, day 27): significantly reduced metastases to the liver
- decrease in biological activity (uPAR; relative to uPA1-48, uPAR binding): four-fold
- IC50 (uPAR): 1 nM
- reduction in primary tumor growth (prostate weight) [6]: ~57%
- incidence of liver metastases ([7]; 6 control mice had metastases, p<0.005): no observed metastases
- mice with visible tumors in the spleen ([7]; of 10 mice): 7 mice
- average spleen weight ([7]; ±113, control 641 mg, normal about 240 mg): 269 mg

Substance: uPA1-48 /PEG3.4 kD conjugate: uPA1-48 N-terminal aldehyde coupled to PEG hydrazide of nominal average molecular weight 3.4 kD ({PEG 3.4 kDa hydrazone}-SNELHQVPSNCDCLNGGTCVSNKYFSNIHWCNCPKKFGGQHCEIDKSK; cysteine pairing not given here; UniProt P00749 21-68, looked up, fragment)
- serum half-life [1]: 0.2 h

Substance: uPA1-48/PEG5 kD conjugate: uPA1-48 N-terminal aldehyde coupled to PEG hydrazide of nominal average molecular weight 5 kD ({PEG 5 kDa hydrazone}-SNELHQVPSNCDCLNGGTCVSNKYFSNIHWCNCPKKFGGQHCEIDKSK; cysteine pairing not given here; UniProt P00749 21-68, looked up, fragment)
- serum half-life [1]: 0.733 h

Substance: IL-8/PEG20 kD conjugate: literature conjugate of IL-8 with PEG20 kD (Gaertner and Offord 1996)
- change in half-life on conjugation to PEG20 kD [2]: no change
